{
  "source": "patent US20100061979A1",
  "key": {"FGF-2 [1]": {"molecular_target": "FGF-2 (UniProt P09038)", "sequence (P09038 143-288 limits assumed)": "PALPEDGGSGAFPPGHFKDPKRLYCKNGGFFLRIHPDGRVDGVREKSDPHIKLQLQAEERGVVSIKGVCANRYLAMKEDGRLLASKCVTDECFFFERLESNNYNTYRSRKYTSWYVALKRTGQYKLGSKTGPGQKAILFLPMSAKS", "test": "BIAcore, two-state reaction with conformation change model"}, "FGF-2 [2]": {"molecular_target": "FGF-2 (UniProt P09038)", "test": "BIAcore"}},
  "data": [
    {"substance": "sFGFR2-Fc variant 4493 (no Ig-like domain 1) (from UniProt P21802 126-377) (Fc fusion)", "values": [
      {"measurement": "Kd", "setting": "FGF-2 [1]", "value": 1.19, "unit": "nM"},
      {"measurement": "Kd", "setting": "FGF-2 [2]", "value": 1.19, "unit": "nM"}
    ]}
  ]
}
